Source: patent EP3263700A1

Legend:
Assay in all cases: cell-based or functional assay
[1] = biological target: purified coagulation factor IX (zymogen)
[2] = biological target: purified coagulation factor VII (zymogen)
[3] = biological target: purified human coagulation factor X (zymogen) (human) (UniProt P00742)
Chain of UniProt P00742 (P00742 41-179 limits assumed, chain 1 of 2): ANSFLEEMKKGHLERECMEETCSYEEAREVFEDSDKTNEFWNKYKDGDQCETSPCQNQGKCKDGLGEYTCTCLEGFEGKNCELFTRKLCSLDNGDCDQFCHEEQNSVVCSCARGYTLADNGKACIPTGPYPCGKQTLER
Chain of UniProt P00742 (P00742 183-488 limits assumed, chain 2 of 2): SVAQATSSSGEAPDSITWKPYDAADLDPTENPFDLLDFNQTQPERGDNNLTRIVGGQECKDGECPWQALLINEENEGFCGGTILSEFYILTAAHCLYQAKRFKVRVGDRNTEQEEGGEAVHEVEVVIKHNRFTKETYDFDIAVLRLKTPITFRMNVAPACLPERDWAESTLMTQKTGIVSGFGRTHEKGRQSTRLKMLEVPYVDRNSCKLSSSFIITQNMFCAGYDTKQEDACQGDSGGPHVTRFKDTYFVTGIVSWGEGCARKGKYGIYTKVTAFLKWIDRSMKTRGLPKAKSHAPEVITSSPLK

Substance: C. canimorsus DPP7 (Capnocytophaga canimorsus 5 dipeptidyl peptidase 7) with a C-terminal Strep-His tag (enzyme)
- aPTT in factor deficient plasma [1]: 2 fold
- PT (prothrombin time) in factor deficient plasma [2]: 30%
- PT (prothrombin time) in factor deficient plasma [3]: 10 fold
